Results reported in the supplement of paper PMC11246515.
± gives the standard deviation of the averaged measurements.

Assay: total protein half-life in vivo (active degradation + dilution); higher = more stable protein
[1] = E. coli NCM3722 delta-clpP delta-lon delta-hslV, growth: N-lim chemostat, doubling time 6 h
[2] = E. coli NCM3722 delta-clpP, growth: N-lim chemostat, doubling time 6 h
[3] = E. coli NCM3722 delta-hslV, growth: N-lim chemostat, doubling time 6 h
[4] = E. coli NCM3722 delta-lon, growth: N-lim chemostat, doubling time 6 h
[5] = E. coli NCM3722 delta-smpB, growth: N-lim chemostat, doubling time 6 h
[6] = wild type E. coli NCM3722, growth: C-lim chemostat, doubling time 3 h
[7] = wild type E. coli NCM3722, growth: C-lim chemostat, doubling time 6 h
[8] = wild type E. coli NCM3722, growth: C-lim chemostat, doubling time 12 h
[9] = wild type E. coli NCM3722, growth: N-lim chemostat, doubling time 6 h
[10] = wild type E. coli NCM3722, growth: N-lim chemostat, doubling time 12 h
[11] = wild type E. coli NCM3722, growth: P-lim chemostat, doubling time 6 h
[12] = wild type E. coli NCM3722, growth: P-lim chemostat, doubling time 12 h

Sequence | total protein half-life in vivo [1] [h] | total protein half-life in vivo [2] [h] | total protein half-life in vivo [3] [h] | total protein half-life in vivo [4] [h] | total protein half-life in vivo [5] [h] | total protein half-life in vivo [6] [h] | total protein half-life in vivo [7] [h] | total protein half-life in vivo [8] [h] | total protein half-life in vivo [9] [h] | total protein half-life in vivo [10] [h] | total protein half-life in vivo [11] [h] | total protein half-life in vivo [12] [h]
MSSSCIEEVSVPDDNWYRIANELLSRAGIAINGSAPADIRVKNPDFFKRVLQEGSLGLGESYMDGWWECDRLDMFFSKVLRAGLENQLPHHFKDTLRIAGARLFNLQSKKRAWIVGKEHYDLGNDLFSRMLDPFMQYSCAYWKDADNLESAQQAKLKMICEKLQLKPGMRVLDIGCGWGGLAHYMASNYDVSVVGVTISAEQQKMAQERCEGLDVTILLQDYRDLNDQFDRIVSVGMFEHVGPKNYDTYFAVVDRNLKPEGIFLLHTIGSKKTDLNVDPWINKYIFPNGCLPSVRQIAQSSEPHFVMEDWHNFGADYDTTLMAWYERFLAAWPEIADNYSERFKRMFTYYLNACAGAFRARDIQLWQVVFSRGVENGLRVAR [P0A9H7] | 2.09 ± 0.32 | 0.86 ± 0.041 | 0.465 ± 0.078 | 0.662 ± 0.29 | 0.503 ± 0.04 | 0.474 ± 0.077 | 0.6003 ± 0.0022 | 0.871 ± 0.26 | 0.643 ± 0.12 | 0.868 ± 0.22 | 0.649 ± 0.26 | 1.27 ± 0.76
MSSSRPVFRSRWLPYLLVAPQLIITVIFFIWPAGEALWYSLQSVDPFGFSSQFVGLDNFVTLFHDSYYLDSFWTTIKFSTFVTVSGLLVSLFFAALVEYIVRGSRFYQTLMLLPYAVAPAVAAVLWIFLFNPGRGLITHFLAEFGYDWNHAQNSGQAMFLVVFASVWKQISYNFLFFYAALQSIPRSLIEAAAIDGAGPIRRFFKIALPLIAPVSFFLLVVNLVYAFFDTFPVIDAATSGGPVQATTTLIYKIYREGFTGLDLASSAAQSVVLMFLVIVLTVVQFRYVESKVRYQ | – | – | – | – | – | – | – | – | – | – | 5.34 | 11.9 ± 0.84
MSSTLREASKDTLQAKDKTYHYYSLPLAAKSLGDITRLPKSLKVLLENLLRWQDGNSVTEEDIHALAGWLKNAHADREIAYRPARVLMQDFTGVPAVVDLAAMREAVKRLGGDTAKVNPLSPVDLVIDHSVTVDRFGDDEAFEENVRLEMERNHERYVFLKWGKQAFSRFSVVPPGTGICHQVNLEYLGKAVWSELQDGEWIAYPDTLVGTDSHTTMINGLGVLGWGVGGIEAEAAMLGQPVSMLIPDVVGFKLTGKLREGITATDLVLTVTQMLRKHGVVGKFVEFYGDGLDSLPLADRATIANMSPEYGATCGFFPIDAVTLDYMRLSGRSEDQVELVEKYAKAQGMWRNPGDEPIFTSTLELDMNDVEASLAGPKRPQDRVALPDVPKAFAASNELEVNATHKDRQPVDYVMNGHQYQLPDGAVVIAAITSCTNTSNPSVLMAAGLLAKKAVTLGLKRQPWVKASLAPGSKVVSDYLAKAKLTPYLDELGFNLVGYGCTTCIGNSGPLPDPIETAIKKSDLTVGAVLSGNRNFEGRIHPLVKTNWLASPPLVVAYALAGNMNINLASEPIGHDRKGDPVYLKDIWPSAQEIARAVEQVSTEMFRKEYAEVFEGTAEWKGINVTRSDTYGWQEDSTYIRLSPFFDEMQATPAPVEDIHGARILAMLGDSVTTDHISPAGSIKPDSPAGRYLQGRGVERKDFNSYGSRRGNHEVMMRGTFANIRIRNEMVPGVEGGMTRHLPDSDVVSIYDAAMRYKQEQTPLAVIAGKEYGSGSSRDWAAKGPRLLGIRVVIAESFERIHRSNLIGMGILPLEFPQGVTRKTLGLTGEEKIDIGDLQNLQPGATVPVTLTRADGSQEVVPCRCRIDTATELTYYQNDGILHYVIRNMLK | 5.26 ± 0.24 | 4.44 ± 0.1 | 4.73 ± 0.14 | 4.71 ± 0.15 | 4.362 ± 0.015 | 3.14 ± 0.26 | 5.47 ± 0.13 | 9.9 ± 0.64 | 4.65 ± 0.17 | 7.39 ± 0.19 | 5.81 ± 0.33 | 11 ± 0.17
MSSTNIEQVMPVKLAQALANPLFPALDSALRSGRHIGLDELDNHAFLMDFQEYLEEFYARYNVELIRAPEGFFYLRPRSTTLIPRSVLSELDMMVGKILCYLYLSPERLANEGIFTQQELYDELLTLADEAKLLKLVNNRSTGSDVDRQKLQEKVRSSLNRLRRLGMVWFMGHDSSKFRITESVFRFGADVRAGDDPREAQRRLIRDGEAMPIENHLQLNDETEENQPDSGEEE | 6.36 ± 0.27 | 6.18 ± 0.4 | – | 6.21 ± 0.7 | 5.67 ± 0.27 | 2.98 ± 0.069 | 5.85 ± 0.17 | 11.1 ± 0.5 | 5.85 ± 0.31 | 9.43 ± 0.28 | 5.716 ± 0.029 | 10.7 ± 0.54
MSSVDILVPDLPESVADATVATWHKKPGDAVVRDEVLVEIETDKVVLEVPASADGILDAVLEDEGTTVTSRQILGRLREGNSAGKETSAKSEEKASTPAQRQQASLEEQNNDALSPAIRRLLAEHNLDASAIKGTGVGGRLTREDVEKHLAKAPAKESAPAAAAPAAQPALAARSEKRVPMTRLRKRVAERLLEAKNSTAMLTTFNEVNMKPIMDLRKQYGEAFEKRHGIRLGFMSFYVKAVVEALKRYPEVNASIDGDDVVYHNYFDVSMAVSTPRGLVTPVLRDVDTLGMADIEKKIKELAVKGRDGKLTVEDLTGGNFTITNGGVFGSLMSTPIINPPQSAILGMHAIKDRPMAVNGQVEILPMMYLALSYDHRLIDGRESVGFLVTIKELLEDPTRLLLDV [P0AFG6] | – | 6.24 ± 0.17 | 5.462 ± 0.018 | 5.45 ± 0.14 | 4.93 ± 0.068 | 2.97 ± 0.23 | 5.7 ± 0.27 | 11.3 ± 0.7 | 5.17 ± 0.35 | 11 ± 2.5 | 5.72 ± 0.087 | 12 ± 1.1
MSTANQKPTESVSLNAFKQPKAFYLIFSIELWERFGYYGLQGIMAVYLVKQLGMSEADSITLFSSFSALVYGLVAIGGWLGDKVLGTKRVIMLGAIVLAIGYALVAWSGHDAGIVYMGMAAIAVGNGLFKANPSSLLSTCYEKNDPRLDGAFTMYYMSVNIGSFFSMIATPWLAAKYGWSVAFALSVVGLLITIVNFAFCQRWVKQYGSKPDFEPINYRNLLLTIIGVVALIAIATWLLHNQEVARMALGVVAFGIVVIFGKEAFAMKGAARRKMIVAFILMLEAIIFFVLYSQMPTSLNFFAIRNVEHSILGLAVEPEQYQALNPFWIIIGSPILAAIYNKMGDTLPMPTKFAIGMVMCSGAFLILPLGAKFASDAGIVSVSWLVASYGLQSIGELMISGLGLAMVAQLVPQRLMGFIMGSWFLTTAGANLIGGYVAGMMAVPDNVTDPLMSLEVYGRVFLQIGVATAVIAVLMLLTAPKLHRMTQDDAADKAAKAAVA | – | – | – | – | – | – | – | – | – | 4.49 | – | –
MSTDNKQSLPAITLAAIGVVYGDIGTSPLYTLRECLSGQFGFGVERDAVFGFLSLIFWLLIFVVSIKYLTFVMRADNAGEGGILTLMSLAGRNTSARTTSMLVIMGLIGGSFFYGEVVITPAISVMSAIEGLEIVAPQLDTWIVPLSIIVLTLLFMIQKHGTAMVGKLFAPIMLTWFLILAGLGLRSIIANPEVLHALNPMWAVHFFLEYKTVSFIALGAVVLSITGVEALYADMGHFGKFPIRLAWFTVVLPSLTLNYFGQGALLLKNPEAIKNPFFLLAPDWALIPLLIIAALATVIASQAVISGVFSLTRQAVRLGYLSPMRIIHTSEMESGQIYIPFVNWMLYVAVVIVIVSFEHSSNLAAAYGIAVTGTMVLTSILSTTVARQNWHWNKYFVALILIAFLCVDIPLFTANLDKLLSGGWLPLSLGTVMFIVMTTWKSERFRLLRRMHEHGNSLEAMIASLEKSPPVRVPGTAVYMSRAINVIPFALMHNLKHNKVLHERVILLTLRTEDAPYVHNVRRVQIEQLSPTFWRVVASYGWRETPNVEEVFHRCGLEGLSCRMMETSFFMSHESLILGKRPWYLRLRGKLYLLLQRNALRAPDQFEIPPNRVIELGTQVEI | 7.06 ± 1.1 | – | 6.21 | 6.28 ± 0.53 | 5.9 ± 0.4 | – | 6.79 ± 0.6 | 14.2 ± 1.2 | 6.28 ± 1 | 12.17 ± 0.096 | 6.43 ± 0.26 | 12.6 ± 0.69
MSTIIMDLCSYTRLGLTGYLLSRGVKKREINDIETVDDLAIACDSQRPSVVFINEDCFIHDASNSQRIKLIINQHPNTLFIVFMAIANVHFDEYLLVRKNLLISSKSIKPESLDDILGDILKKETTITSFLNMPTLSLSRTESSMLRMWMAGQGTIQISDQMNIKAKTVSSHKGNIKRKIKTHNKQVIYHVVRLTDNVTNGIFVNMR [P0DMC9] | 5.4 ± 0.66 | – | – | 1 ± 0.029 | 1.51 ± 0.036 | – | – | – | – | – | – | –
MSTITLLCIALAGVIMLLLLVIKAKVQPFVALLLVSLLVALAAGIPAGEVGKVMIAGMGGVLGSVTIIIGLGAMLGRMIEHSGGAESLANYFSRKLGDKRTIAALTLAAFFLGIPVFFDVGFIILAPIIYGFAKVAKISPLKFGLPVAGIMLTVHVAVPPHPGPVAAAGLLHADIGWLTIIGIAISIPVGVVGYFAAKIINKRQYAMSVEVLEQMQLAPASEEGATKLSDKINPPGVALVTSLIVIPIAIIMAGTVSATLMPPSHPLLGTLQLIGSPMVALMIALVLAFWLLALRRGWSLQHTSDIMGSALPTAAVVILVTGAGGVFGKVLVESGVGKALANMLQMIDLPLLPAAFIISLALRASQGSATVAILTTGGLLSEAVMGLNPIQCVLVTLAACFGGLGASHINDSGFWIVTKYLGLSVADGLKTWTVLTTILGFTGFLITWCVWAVI | – | – | – | – | – | – | – | 15.2 | – | – | – | –
